In patent US20120258109A1 (Eli Lilly, published 2012):

Experiments:
Rat TGF-alpha [1] = biological target: T1, Rat TGF-alpha (rat, UniProt P01134 39-88); assay: SPR (Biacore), antibody captured by anti-human Fc, ligand in solution, 25 C
Experimental: (§1) Biacore T2000 instrument (BIAcore® AB, Upsala, Sweden), reagents and Biacore T2000 Evaluation Software Ver 4.1 are used for the Surface Plasmon Resonance analysis. A CM5 chip is prepared using manufacturer's EDC/NHS amine coupling method. The surfaces of all four flow cells are activated by injecting a 1:1 mixture of EDC/NHS for 7 minutes at 10 μL/min. Goat anti-human Fc γ specific antibody is diluted to 50 μg/ml in 10 mM acetate, pH 4.0 buffer and immobilized for approximately 10000 RU onto all four flow cells by 7 minute injection at a flow rate of 10 μL/min. Un-reacted sites are blocked with a 7 minute injection of ethanolamine at 10 μL/min. Injections of 3×20 seconds of glycine pH 1.5 at 30 μL/min are used to remove non-covalently associated protein. The running buffer is HBS-EP [10 mM HEPES, 150 mM Sodium Chloride, 3 mM EDTA, 0.005% Polysorbate 20].
(§2) Duplicate injections of each ligand concentration are injected at 30 μL/min for 300 seconds followed by a dissociation phase. […] Regeneration is performed by injecting 10 mM glycine pH 1.5 for 3×20 seconds at 30 μL/min over all flowcell.
(§3) Reference-subtracted data are collected as Fc2−Fc1. The measurements are obtained at 25° C. The on-rate (kₒₙ) and off-rate (koff) for each ligand are evaluated using a “1:1 (Langmuir) Binding” binding model. The affinity (KD) is calculated from the binding kinetics according to the relationship: KD=koff/kₒₙ.

Mouse Epiregulin [2] = biological target: T2, Mouse Epiregulin (mouse, UniProt Q61521 56-101); assay: as above
Experimental: as §1, §2, §3

Cynomolgus Epiregulin = Cynomolgus Epiregulin (cynomolgus, UniProt O14944 63-108 (human entry), limits assumed); assay: as above
Experimental: as §1, §2, §3

Met-human Epiregulin [3] = biological target: T3, Met-human Epiregulin (human, UniProt O14944 63-108); assay: as above
T3 construct: also called EREG; human met-Epiregulin
Experimental: as §1, §2, §3

Human Epigen = Human Epigen (human, UniProt Q6UW88 24-104, limits assumed); assay: cell-based or functional assay
Rat TGF-alpha [4] = biological target: T1, Rat TGF-alpha; assay: cell-based or functional assay
Mouse Epiregulin [5] = biological target: T2, Mouse Epiregulin; assay: cell-based or functional assay
Met-human Epiregulin [6] = biological target: T3, Met-human Epiregulin; assay: cell-based or functional assay
Mouse TGF-alpha = Mouse TGF-alpha (mouse, UniProt P48030 39-88, limits assumed); assay: SPR (Biacore), antibody captured on the chip, ligand in solution, 25 C
Experimental: as §1
(§4) Duplicate injections of each ligand concentration are injected at 30 μL/min for 300 seconds followed by a dissociation phase. […] Regeneration is performed by injecting 10 mM glycine pH 1.5 for 30 seconds at 30 μL/min over all flowcell.
as §3

Mouse Epiregulin [7] = biological target: T2, Mouse Epiregulin; assay: as above
Experimental: as §1, §4, §3

Human TGF-alpha = Human TGF-alpha (human, UniProt P01135 40-89); assay: cell-based or functional assay

Row | Kd (Rat TGF-alpha [1]) [nM] | Kd (Mouse Epiregulin [2]) [nM] | Kd (Cynomolgus Epiregulin) [nM] | Kd (Met-human Epiregulin [3]) [nM] | IC50 (nM), MFc7 proliferation assay (BrDU), ligand at 100 nM (Human Epigen) [nM] | IC50 (nM), MFc7 proliferation assay (BrDU), ligand at 0.5 nM (Rat TGF-alpha [4]) [nM] | IC50 (nM), MFc7 proliferation assay (BrDU), ligand at 0.5 nM (Mouse Epiregulin [5]) [nM] | IC50 (nM), MFc7 proliferation assay (BrDU), ligand at 0.5 nM (Met-human Epiregulin [6]) [nM] | Kd (Mouse TGF-alpha) [nM] | koff (Mouse TGF-alpha) [s⁻¹] | kon (Mouse TGF-alpha) [M⁻¹ s⁻¹] | Kd (Mouse Epiregulin [7]) [nM] | koff (Mouse Epiregulin [7]) [s⁻¹] | kon (Mouse Epiregulin [7]) [M⁻¹ s⁻¹] | IC50 (nM), MFc7 proliferation assay (BrDU) (Human TGF-alpha) [nM] | IC50 (nM), MFc7 proliferation assay (BrDU) (Met-human Epiregulin [6]) [nM] | Binder
1 | 0.0705 | 342 | 1.05 | 1.29 | 807 | 0.19 | 334 | 3.15 |  |  |  |  |  |  |  |  | Antibody I (antibody, human IgG4 S228P, kappa, F234A L235A, V domains shown) VH: QVQLVQSGAEVKKPGSSVKVSCKASGYTFTDAYINWVRQAPGQGLEWMGWIWPGPVITYYNPKFKGRVTITADKSTSTAYMELSSLRSEDTAVYYCARREVLSPFAYWGQGTTVTVSS VL: DIVMTQSPDSLAVSLGERATINCRSSQSIVHSTGNTYLEWYQQKPGQPPKLLIYKVSNRFSGVPDRFSGSGSGTDFTLTISSLQAEDVAVYYCFHGTHVPYTFGGGTKVEIKR
2 |  |  |  |  |  | 0.13 | 214 |  | 0.038 | 2.02e-05 | 541000 | 215 | 0.0141 | 65500 | 0.52 | 1.12 | Antibody III (antibody, mouse IgG1, kappa, V domains shown, same six CDRs as Antibody I) VH: QVQLQQSGPELVKPGASVKISCKASGYTFTDAYINWVKQRPGQGLEWIGWIWPGPVITYYNPKFKGKATLTVDKSSSTAYMLLSSLTSEDSAFYFCARREVLSPFAYWGQGTLVTVSA VL: DVLMTQTPLSLPVSLGDQASISCRSSQSIVHSTGNTYLEWYLQKPGQSPKLLIYKVSNRFSGVPDRFSGSGSGTDFTLKISRVEAEDLGVYYCFHGTHVPYTFGGGTKLEIKR
